Assay [1] concerns the target group 1: ZNF566 and ARNTL homologous peptide/HLA-A*02:01 complexes (mixed). In words: SPR (BIAcore T200), crude scFv captured, mixed complexes flowed over.
The target of assay [2] is group 3: OR1I1, OR51B6, OR6C1, ATG9A, RP1 and NR2E1 homologous peptide/HLA-A*02:01 complexes (mixed). The assay is described as above.
Assay [3] deals with group 2: CDC14A, PTP4A1, BRCA2 and RCL1 homologous peptide/HLA-A*02:01 complexes (mixed). The description is as above.
In assay [4] the target is AFP158 homologous peptides/HLA-A*02:01 complexes. The assay can be described thus: SPR, crude scFv captured, complexes as analyte. A general note: Surface plasmon resonance follows binding to a sensor surface in real time, without labels.
The target in assay [5] is other peptide-loaded T2 cells. In words: cell-based or functional assay.

Positions count from the first letter of the chain named.

B1: AS170036 VL1VH1 (scFv)
scFv: QSALTQPRSVSGSPGQSVTISCAGTSSDVGSENYVSWYQQHPGKAPKLMIYQVNKRASGVPDRFSGSKSGNTASLTISGLQAEDEADYYCASYRSSDHNIVFGGGTKLTVLGGGGSGGGGSGGGGSEVQLVESGGGLVQPGGSLRLSCAASGFTFSSYAMSWVRQAPGKGLEWVSTINSGTGSPYYADSVKGRFTISRDNSKNTLYLQMNSLRAEDTAVYYCAKNFFDGSWFLGPPAMDYWGQGTLVTVSSHHHHHH
B1: the SPR binding level turned out to be 0.8 RU in assay [1], 0.2 RU in assay [2] and 0.4 RU in assay [3].

B2: 67-AS170036 VL1VH1-57K98F108A (scFv)
scFv: B1 scFv with H98F, S183K, G234A
Consider B2, for which the SPR binding level in assay [1] was 35.8 RU; in assay [2], 6.3 RU; in assay [3] it was 22.3 RU.

B3: 10-AS170036 VL1VH1-57K98F (scFv)
scFv: B1 scFv with H98F, S183K
In the case of B3, the SPR binding level in assay [1] stood at 6.8 RU; in assay [2] it was 1 RU; in assay [3], 4 RU.

B4: AS170036 VL1VH1-VLH98F (scFv)
scFv: B1 scFv with H98F
On to B4, for which, in assay [4], the SPR response was less than 3.5 RU.

B5: 82-AS170036 VL1VH1-57M98Q108A (scFv)
scFv: B1 scFv with H98Q, S183M, G234A
On to B5, for which the SPR binding level in assay [1] was 28.2 RU; in assay [2], 4.7 RU; in assay [3], 16.6 RU.

B6: AS170036 VL1VH1-VHG56Y (scFv)
scFv: B1 scFv with G182Y
In assay [4], B6 had an SPR response of less than 3.5 RU.

B7: 70-AS170036 VL1VH1-57K98I108A (scFv)
scFv: B1 scFv with H98I, S183K, G234A
On to B7, for which the SPR binding level in assay [1] was found to be 33.7 RU; in assay [2] it was 5.8 RU; in assay [3] it was 21.9 RU.

B8: AS170036 VL1VH1-VHG108A (scFv)
scFv: B1 scFv with G234A
On to B8, for which the SPR response in assay [4] was less than 3.5 RU.

B9: AS170036 VL1VH1-VHG108D (scFv)
scFv: B1 scFv with G234D
As for B9, the SPR response in assay [4] was less than 3.5 RU.

B10: 48-AS170036 VL1VH1-56Y98Q108S (scFv)
scFv: B1 scFv with H98Q, G182Y, G234S
As to B10, the SPR binding level is 9.3 RU in assay [1], 6.1 RU in assay [2] and 56.6 RU in assay [3].

B11: 49-AS170036 VL1VH1-56N98F108A (scFv)
scFv: B1 scFv with H98F, G182N, G234A
Regarding B11, the SPR binding level in assay [1] came to 15.3 RU; in assay [2] it was 6.5 RU; in assay [3], 21.1 RU.

B12: AS170036 VL1VH1-VHS57H (scFv)
scFv: B1 scFv with S183H
Regarding B12, the SPR response in assay [4] is less than 3.5 RU.

B13: 45-AS170036 VL1VH1-56Y98I108S (scFv)
scFv: B1 scFv with H98I, G182Y, G234S
For B13, the SPR binding level came to 9 RU in assay [1], 6 RU in assay [2] and 64.7 RU in assay [3].

B14: AS170036 VL1VH1-VHG108S (scFv)
scFv: B1 scFv with G234S
For B14, the SPR response in assay [4] is less than 3.5 RU.

B15: 25-AS170036 VL1VH1-57K108A (scFv)
scFv: B1 scFv with S183K, G234A
Turning to B15, the results for the SPR binding level in assay [1], in assay [2] and in assay [3] were 10.9 RU, 2 RU and 6.3 RU, respectively.

B16: 15-AS170036 VL1VH1-57M98Q (scFv)
scFv: B1 scFv with H98Q, S183M
For B16, the values for the SPR binding level in assay [1], in assay [2] and in assay [3] were 5.1 RU, 1.2 RU and 2.8 RU, respectively.

B17: AS170036 VL1VH1-VHS57K (scFv)
scFv: B1 scFv with S183K
For B17, the SPR response in assay [4] is less than 3.5 RU.

B18: 03-AS170036 VL1VH1-56Y98Q (scFv)
scFv: B1 scFv with H98Q, G182Y
With B18, the SPR binding level turned out to be 4 RU in assay [1], 2.4 RU in assay [2] and 27.2 RU in assay [3].

B19: 42-AS170036 VL1VH1-56Y98F108S (scFv)
scFv: B1 scFv with H98F, G182Y, G234S
Consider B19, for which the SPR binding level in assay [1] came out at 6.3 RU; in assay [2], 4.4 RU; in assay [3], 39.3 RU.

B20: 34-AS170036 VL1VH1-98I108A (scFv)
scFv: B1 scFv with H98I, G234A
In the case of B20, the SPR binding level in assay [1] amounted to 10.2 RU; in assay [2] it was 3.6 RU; in assay [3], 11.2 RU.

B21: 75-AS170036 VL1VH1-57K98Q108S (scFv)
scFv: B1 scFv with H98Q, S183K, G234S
Consider B21, for which the SPR binding level in assay [1] stood at 22.6 RU; in assay [2], 3.9 RU; in assay [3], 14.3 RU.

B22: AS170036 VL1VH1-VHG56N (scFv)
scFv: B1 scFv with G182N
B22: the SPR response in assay [4] is less than 3.5 RU.

B23: 40-AS170036 VL1VH1-56Y98F108A (scFv)
scFv: B1 scFv with H98F, G182Y, G234A
Turning to B23, the values for the SPR binding level in assay [1], in assay [2] and in assay [3] were 13.8 RU, 9.5 RU and 79.2 RU, respectively.

B24: 19-AS170036 VL1VH1-56N108A (scFv)
scFv: B1 scFv with G182N, G234A
Take B24: the SPR binding level was found to be 5 RU in assay [1], 2.6 RU in assay [2] and 7.5 RU in assay [3].

B25: AS170036 VL1VH1-VLH98Q (scFv)
scFv: B1 scFv with H98Q
B25: in assay [4], the SPR response was less than 3.5 RU.

B26: 22-AS170036 VL1VH1-57H108A (scFv)
scFv: B1 scFv with S183H, G234A
In the case of B26, the SPR binding level is 26.6 RU in assay [1], 5.7 RU in assay [2] and 10 RU in assay [3].

B27: AS170036 VL1VH1-VHS57M (scFv)
scFv: B1 scFv with S183M
The molecule B27 had an SPR response in assay [4] of less than 3.5 RU.

B28: AS170036 VL1VH1-VLH98I (scFv)
scFv: B1 scFv with H98I
The molecule B28 had an SPR response in assay [4] of less than 3.5 RU.

B29: 43-AS170036 VL1VH1-56Y98I108A (scFv)
scFv: B1 scFv with H98I, G182Y, G234A
As to B29, the SPR binding level in assay [1] turned out to be 25.7 RU; in assay [2] it was 17.3 RU; in assay [3] it was 148 RU.

B30: 16-AS170036 VL1VH1-56Y108A (scFv)
scFv: B1 scFv with G182Y, G234A
For the molecule B30, the values for the SPR binding level in assay [1], in assay [2] and in assay [3] were 4.5 RU, 3.2 RU and 32.6 RU, respectively.

B31: 27-AS170036 VL1VH1-57K108S (scFv)
scFv: B1 scFv with S183K, G234S
In the case of B31, the SPR binding level stood at 6.1 RU in assay [1], 1.3 RU in assay [2] and 3.3 RU in assay [3].

B32: 05-AS170036 VL1VH1-56N98I (scFv)
scFv: B1 scFv with H98I, G182N
For the molecule B32, the SPR binding level in assay [1] was determined as 4.4 RU; in assay [2] it was 2 RU; in assay [3], 7 RU.

B33: AS167821A-AS167821A-TCE-KIH (bispecific antibody, human IgG1, kappa, L234A L235A)
heavy: EVQLVESGGGLVQPGRSLRLSCAASGFTFDDYAMHWVRQAPGKGLEWVSGISWNSGSIGYADSVKGRFTISRDNAKNSLYLQMNSLRAEDTALYYCAKDSRGYGDYRLGGAYWGQGTLVTVSSASTKGPSVFPLAPSSKSTSGGTAALGCLVKDYFPEPVTVSWNSGALTSGVHTFPAVLQSSGLYSLSSVVTVPSSSLGTQTYICNVNHKPSDTKVDKKVEPKSCDKTHTCPPCPAPEAAGGPSVFLFPPKPKDTLMISRTPEVTCVVVDVSHEDPEVKFNWYVDGVEVHNAKTKPREEQYNSTYRVVSVLTVLHQDWLNGKEYKCKVSNKALPAPIEKTISKAKGQPREPQVYTLPPSREEMTKNQVSLWCLVKGFYPSDIAVEWESNGQPENNYKTTPPVLDSDGSFFLYSKLTVDKSRWQQGNVFSCSVMHEALHNHYTQKSLSLSPGK
light: not shown
chain: QVRLVESGGGSVQAGGSLRLSCAASGRTYSTYAMGWFRQAPGKEREGVATIYIGSGRTYYVDSVKGRFTISQDNAKNTLYLQMNNLKPEDTAMYYCTADVDPYESSWSRGLGYWGQGTQVTVSSGGGGSGGGGSGGGGSGGGGSGGGGSQVRLVESGGGSVQAGGSLRLSCAASGRTYSTYAMGWFRQAPGKEREGVATIYIGSGRTYYVDSVKGRFTISQDNAKNTLYLQMNNLKPEDTAMYYCTADVDPYESSWSRGLGYWGQGTQVTVSSEPKSSDKTHTCPPCPAPEAAGGPSVFLFPPKPKDTLMISRTPEVTCVVVDVSHEDPEVKFNWYVDGVEVHNAKTKPREEQYNSTYRVVSVLTVLHQDWLNGKEYKCKVSNKALPAPIEKTISKAKGQPREPQVYTLPPSREEMTKNQVSLSCAVKGFYPSDIAVEWESNGQPENNYKTTPPVLDSDGSFFLVSKLTVDKSRWQQGNVFSCSVMHEALHNRYTQKSLSLSPGK
The molecule B33 registered a T cell redirected cell killing (LDH), 1 nM BsAb in assay [5] of less than 20%.

(Values after US20240279318A1.)
